In the supplement of paper PMC12042874 one finds amyloid nucleation score data, which are given here for 140 substances.

± gives the uncertainty stated by the source.

A short description of the series: amyloid nucleation score (Sup35N fusion, yeast selection) (log enrichment); library NNK2; higher = more nucleation; inactive = no reads after selection. An outline of the steps: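 Sup35N was fused to peptides of 20 random codons and expressed in psi-negative yeast, which were induced with 100 μM copper sulfate for 24 hours and then grown on medium lacking adenine and uracil for 7 days at 30°C. Plasmid inserts from input and output were sequenced on Illumina. The nucleation score is the DiMSum log enrichment of output over input reads, centred on the mode score of non-aggregating sequences. Sequences with under 100 input reads were left out, and random libraries had three technical output replicates.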
On to TTRRC, for which the amyloid nucleation score was -0.43 ± 0.32.
On to TTSVTGQC, for which the amyloid nucleation score was -1.09 ± 0.55.
TVAVRSPIT yielded an amyloid nucleation score of -0.686 ± 0.44.
As for TVCWSLFDDCSFYFRCNAFE, the figure is 8.42 ± 0.042; as for TVDNPSNSFTFFRVYQLYVR, 3.11 ± 0.14.
For TVFFF, the amyloid nucleation score was 2.6 ± 0.11.
Regarding TVFFGLVCRGPVKKDM, the amyloid nucleation score came out at 2.1 ± 0.17.
As for TVFRFNIYDYFFVM, the amyloid nucleation score was 4.27 ± 0.057.
TVFVWKPRVGKN: the amyloid nucleation score was found to be 4.716 ± 0.044.
Regarding TVFWSNLVRVPCRSDTSQYD, the amyloid nucleation score worked out at 0.148 ± 1.
As for TVFYIYMGQDDG, the figure is 5.12 ± 0.1; as for TVGIVGFHVVVRELWVGVRR, 6.868 ± 0.066.
In the case of TVGLIRLRLSILYFGPLDSV, the amyloid nucleation score was determined as 0.115 ± 0.56.
TVHCGMQWWLVARRPRNEAQ displayed an amyloid nucleation score of 1.25 ± 0.38.
Next, TVIRRIYFRRPGRSNMSCTN: -0.067 ± 0.65; TVLWSRLDPPPRERKL: 1.13 ± 0.34; TVMKDYMALESSSYVNPMLI: -0.251 ± 0.76.
TVMRGVLCMTILYLMWHKGY showed an amyloid nucleation score of 4.75 ± 0.08.
TVNCLGIFSRFLCLNWASWL registered an amyloid nucleation score of 3.53 ± 0.15.
TVRLVWSWMHTPLFGPVTCA displayed an amyloid nucleation score of 0.073 ± 0.56.
Take TVSIDLASIWALA: the amyloid nucleation score result was “inactive”.
TVSNPGMPNAI yielded an amyloid nucleation score of -0.557 ± 0.64.
Next, TVSQFLFN: -0.559 ± 0.76; TVVGSLSVVF: 1.47 ± 0.38.
As to TVYAIP, the amyloid nucleation score was -0.322 ± 0.65.
TWNGVWLGDFACFSWYMGPL registered an amyloid nucleation score of 0.094 ± 0.36.
In turn, TWRYRKMFASASFA displayed an amyloid nucleation score of 0.33 ± 0.16.
Take TWTLQQSVLVSEKNAKGRVT: the amyloid nucleation score is 3.98 ± 0.078.
Next, TYCILPLRVRMWTSTTLCQV: 4.59 ± 0.055.
Regarding TYDLDLVMLRSMRVENLLWG, the amyloid nucleation score was 0.616 ± 0.4.
In turn, TYEMSVVGVEWWVTGQLTIC yielded an amyloid nucleation score of 1.68 ± 0.38.
As to TYFARCFDNWTVNWCVARVC, the amyloid nucleation score was found to be 0.614 ± 0.57.
Next, TYNGMFTQLAFG: 3.48 ± 0.07; TYPAHFVWLCNCCVDKYSLS: 2.79 ± 0.069.
In turn, TYSVGSSYCLRRSFGAGFFS returned an amyloid nucleation score of 0.728 ± 0.25.
As to TYTVRFENSRRTGDN, the amyloid nucleation score was -0.13 ± 0.41.
TYVAFGGWLLEMPMLPTWSQ came in with an amyloid nucleation score of 0.332 ± 0.37.
Take VADMVVRT: the amyloid nucleation score was determined as 0.806 ± 0.32.
On to VAESVSVT, for which the amyloid nucleation score worked out at 0.6 ± 0.24.
In turn, VAGIVYLGARW displayed an amyloid nucleation score of 5.43 ± 0.086.
On to VAHKSPFIAHFTWVILAYGM, for which the amyloid nucleation score worked out at 0.211 ± 0.61.
As for VAMVLLC, the figure is 1.03 ± 0.21; as for VAQAQQQYP, 1.08 ± 0.53; as for VATLMIKFR, 4.116 ± 0.036.
In turn, VAVLKGVGDSPNLAGDSKWD had an amyloid nucleation score of 0.355 ± 0.56.
With VAVTMHYDNFHCLLCCCSTL, the amyloid nucleation score was 8.384 ± 0.078.
Take VAWMFMASFRSLSMMVSISR: the amyloid nucleation score turned out to be 0.01 ± 0.37.
As to VCAQLYPVYMWFWICMGMVQ, the amyloid nucleation score amounted to 2.27 ± 0.14.
On to VCELGRRWDLRSVLSC, for which the amyloid nucleation score was found to be 0.624 ± 0.42.
Regarding VCFNWRHYATRLSDERWLRS, the amyloid nucleation score worked out at 1.1 ± 0.52.
VCFVWDKARAMCSFYFV had an amyloid nucleation score of -0.596 ± 0.79.
VCGMLTVIHWFLVIVVIDLV gave an amyloid nucleation score of 0.863 ± 0.58.
Consider VCGWFHGHWGTWWDVQQRKR, for which the amyloid nucleation score turned out to be 2.3 ± 0.16.
Next, VCPPSDVS: “inactive”; VCREMSYLQ: -0.809 ± 0.54; VCSGGLQDSRGYCCYPVGRM: 1.31 ± 0.32.
As for VCVGYFCC, the figure is 5.789 ± 0.024; as for VCVLYLTSTGFLGQLY, 2.74 ± 0.14; as for VDCGFYSSIVAFYRYVHVPW, -0.026 ± 0.27.
With VDIASLKLTSNH, the amyloid nucleation score was -0.213 ± 0.65.
VDITL had an amyloid nucleation score of -0.779 ± 0.56.
VDRHYRSLRFVVGQSVLHSK yielded an amyloid nucleation score of 4.952 ± 0.046.
VDRYLSHCVGKGLDF came in with an amyloid nucleation score of -0.55 ± 0.56.
For VDSVTGVMTFSTRSRSSDGD, the amyloid nucleation score is 0.844 ± 0.43.
In the case of VDTSYITCITRLSPYIKVVL, the amyloid nucleation score is -0.477 ± 0.79.
In the case of VDVFPAPSHRCGLMNLCNLV, the amyloid nucleation score is 0.969 ± 0.28.
With VDVVG, the amyloid nucleation score is 0.299 ± 0.65.
With VDWVMNCYTSGVVSLSFSLG, the amyloid nucleation score entry was “inactive”.
Substance VEIFNLMSGTIIPGLSKLMK registered an amyloid nucleation score of -2.02 ± 0.45.
VENVTDGAVSARYDDMDTSS yielded an amyloid nucleation score of -0.179 ± 0.3.
As for VERFWLIWSRAYYFDFRVRE, the figure is 0.098 ± 0.79; as for VEWCRMVGWSFECEASEKHW, 4.33 ± 0.055.
Substance VFAGFACFHIIN returned an amyloid nucleation score of 5.843 ± 0.044.
For VFASMFILFYV, the amyloid nucleation score was determined as 3.46 ± 0.07.
Next, VFCHLE: 2.43 ± 0.13; VFDIWFLGSDTSSCVNWTYR: 6.583 ± 0.048.
The substance VFHRVEYSWGFRFYCCCLMC had an amyloid nucleation score of 3.91 ± 0.059.
Take VFIGQQDHINP: the amyloid nucleation score was determined as 0.363 ± 0.65.
Regarding VFKFLSAISPFKGD, the amyloid nucleation score was 0.551 ± 0.38.
VFLFDLGYQGR: the amyloid nucleation score amounted to 6.67 ± 0.073.
Substance VFLGVSGETVNSTGYFTGMN yielded an amyloid nucleation score of -2.13 ± 1.1.
On to VFLLTLRCCWEFVLCADGP, for which the amyloid nucleation score is 1.29 ± 0.36.
VFLYYRTILMWVVSGLL had an amyloid nucleation score of -0.449 ± 0.63.
VFPMNELMASTVNKA gave an amyloid nucleation score of 6.274 ± 0.033.
Next, VFRGAVSWTVLIGDNKVVLY: 0.674 ± 0.45; VFSGGSPWWVANMRGAPKLL: 0.94 ± 0.2.
In the case of VFSSYYRSKEFTCIVLLGL, the amyloid nucleation score is -0.026 ± 0.33.
VFTTQEGTTTIPRNSMIEYA showed an amyloid nucleation score of -0.193 ± 0.37.
As for VFVFFGDKW, the entry is “inactive”; as for VFVWIGLGWVTSLLSLYTNG, “inactive”; as for VFWLLGCVHNRGVGQTSHKL, 0.741 ± 0.47.
The substance VFYELGLFLLNFVVLHASED displayed an amyloid nucleation score of 1.68 ± 0.18.
For the substance VFYNLGVHMWLWWSGIVLVR, the amyloid nucleation score came to 0.775 ± 0.74.
Consider VGCIYSFWEWVFKQPVRSRK, for which the amyloid nucleation score result is “inactive”.
VGETLLSFCINWRVGYMFGN came in with an amyloid nucleation score of -0.518 ± 0.5.
As for VGGLDKNHMVLDCLDKGCGM, the figure is 0.216 ± 0.62.
The substance VGGSDSLNFIAIGKTFCVQV yielded an amyloid nucleation score of 0.186 ± 0.27.
The substance VGGWSLYSSPVLLRIWFKRH displayed an amyloid nucleation score of 0.087 ± 0.79.
In the case of VGINLSSATGMFEGKIQDNA, the amyloid nucleation score is -0.757 ± 0.37.
Take VGKLS: the amyloid nucleation score is -0.528 ± 0.29.
On to VGLCVLFRWLHKTWMMEWLG, for which the amyloid nucleation score worked out at 0.426 ± 0.35.
Take VGMTTSWMVDPHGGRPGYHS: the amyloid nucleation score worked out at 2.01 ± 0.16.
Next, VGSFIFLLRCWLSCAIAGVQ: -0.323 ± 0.65; VGSGGKGSMFYGYIELIFM: -0.641 ± 1.1; VGYFLKAMETCVTSLL: “inactive”.
For VGYIQGFERTYL, the amyloid nucleation score was -0.42 ± 0.76.
Next, VGYLALQFLVRCMY: “inactive”.
Next, VHAPLLRRPNVLHTKLH: 0.112 ± 1.1; VHCREWEIIRMINLSRKQRV: -0.419 ± 0.46; VHDRLRLGWGAYGYPFGVLM: 0.027 ± 1.
Substance VHLVSLSLNKTLYDFLTGMG came in with an amyloid nucleation score of -0.178 ± 0.35.
VHVWWANVIRVMYNHVRSDW registered an amyloid nucleation score of 0.133 ± 0.34.
VHYVFSCCNKLPSANSRWGL: the amyloid nucleation score was 6.718 ± 0.066.
For the substance VIAGDTQGMSRGWFLGVLPW, the amyloid nucleation score entry was “inactive”.
As for VICRGITVARWSF, the figure is 3.58 ± 0.065; as for VIDTCGDVNRSRGQVLSGGV, 0.293 ± 0.3; as for VIFYRSFTVS, 3.64 ± 0.053.
Next, VIILRTPYVCSHYWSDPTVL: -0.138 ± 0.56.
Regarding VIKFFNLREQFFVIIMAYGF, the amyloid nucleation score entry was “inactive”.
Next, VILMDMYHAGNSAMCLACGN: -0.119 ± 0.49; VILRVIGIIMRDNKFSHDVR: “inactive”.
VIMSGHSNRHWRSGLERMAG registered an amyloid nucleation score of 0.823 ± 0.27.
In turn, VIQNYL returned an amyloid nucleation score of -0.624 ± 0.39.
On to VIRSLSFLSYIWVDKGVGVV, for which the amyloid nucleation score is -0.89 ± 0.53.
VIRVESCPVYFYLTTRTAGS had an amyloid nucleation score of 0.633 ± 0.8.
Next, VIRVLSMLFFSRVLVPVNSK: 0.151 ± 0.62.
As for VISCQKPGDIKTYNRVGTTD, the figure is -0.35 ± 0.23; as for VISKYDWFK, -0.255 ± 1.1.
As to VIYSELGYHREPVLCG, the amyloid nucleation score is -0.972 ± 0.49.
On to VIYVPLGKNLKIFSKHSFFG, for which the amyloid nucleation score was -0.906 ± 0.76.
For the substance VKASFS, the amyloid nucleation score was 0.798 ± 0.44.
As for VKEVRLPGTRILGRLAGSFR, the entry is “inactive”; as for VKFVLQVYYGVPST, 0.307 ± 0.27; as for VKFWYWAVDLDSCVRCGDGA, 6.586 ± 0.049.
Substance VKHTFLRKFWMHRSIESYGH showed an amyloid nucleation score of -0.111 ± 0.38.
Turning to VKITGPRWLATIICYMFR, the amyloid nucleation score turned out to be 6.47 ± 0.075.
Next, VKIYVFSFFMEL: 3.7 ± 0.12.
Substance VKLIGKITELGKNRMLMLWT gave an amyloid nucleation score of 0.429 ± 0.28.
Regarding VKPWFS, the amyloid nucleation score was -0.145 ± 1.1.
VKRVFGYCFIEGLSKDVFHG displayed an amyloid nucleation score of 6.351 ± 0.043.
